Assay results as given in PMC12132310.

Columns and labels:
[1] = target: SUZ12-3XFLAG PRC2.1mut (loss-of-PRC2.1 mutant, (338–353)-to-GSGSGS) (human (edited endogenous locus in WTC-11 hiPSCs)), Q15022; assay: affinity purification with mass spectrometry; settings: remark: other sources report otherwise
[2] = target: SUZ12-3XFLAG PRC2.2mut (loss-of-PRC2.2 mutant, F99A, R103A, L105A, I106A) (human (edited endogenous locus in WTC-11 hiPSCs)), Q15022; assay: affinity purification with mass spectrometry; settings: remark: other sources report otherwise

fold less enriched than with WT SUZ12 [1] [fold] | fold less enriched than with WT SUZ12 [2] [fold] | Binder
48 | – | EPOP, A6NHQ4 1-379 (natural protein) METLCPAPRLAVPASPRGSPCSPTPRKPCRGTQEFSPLCLRALAFCALAKPRASSLGPGPGELAARSPVLRGPQAPLRPGGWAPDGLKHLWAPTGRPGVPNTAAGEDADVAACPRRGEEEEGGGGFPHFGVRSCAPPGRCPAPPHPRESTTSFASAPPRPAPGLEPQRGPAASPPQEPSSRPPSPPAGLSTEPAGPGTAPRPFLPGQPAEVDGNPPPAAPEAPAASPSTASPAPAAPGDLRQEHFDRLIRRSKLWCYAKGFALDTPSLRRGPERPPAKGPARGAAKKRRLPAPPPRTAQPRRPAPTLPTTSTFSLLNCFPCPPALVVGEDGDLKPASSLRLQGDSKPPPAHPLWRWQMGGPAVPEPPGLKFWGINMDES
– | 13 | JARID2 (endogenous, hiPSCs), Q92833 1-1246 (natural protein) MSKERPKRNIIQKKYDDSDGIPWSEERVVRKVLYLSLKEFKNSQKRQHAEGIAGSLKTVNGLLGNDQSKGLGPASEQSENEKDDASQVSSTSNDVSSSDFEEGPSRKRPRLQAQRKFAQSQPNSPSTTPVKIVEPLLPPPATQISDLSKRKPKTEDFLTFLCLRGSPALPNSMVYFGSSQDEEEVEEEDDETEDVKTATNNASSSCQSTPRKGKTHKHVHNGHVFNGSSRSTREKEPVQKHKSKEATPAKEKHSDHRADSRREQASANHPAAAPSTGSSAKGLAATHHHPPLHRSAQDLRKQVSKVNGVTRMSSLGAGVTSAKKMREVRPSPSKTVKYTATVTKGAVTYTKAKRELVKDTKPNHHKPSSAVNHTISGKTESSNAKTRKQVLSLGGASKSTGPAVNGLKVSGRLNPKSCTKEVGGRQLREGLQLREGLRNSKRRLEEAHQAEKPQSPPKKMKGAAGPAEGPGKKAPAERGLLNGHVKKEVPERSLERNRPKRATAGKSTPGRQAHGKADSASCENRSTSQPESVHKPQDSGKAEKGGGKAGWAAMDEIPVLRPSAKEFHDPLIYIESVRAQVEKFGMCRVIPPPDWRPECKLNDEMRFVTQIQHIHKLGRRWGPNVQRLACIKKHLKSQGITMDELPLIGGCELDLACFFRLINEMGGMQQVTDLKKWNKLADMLRIPRTAQDRLAKLQEAYCQYLLSYDSLSPEEHRRLEKEVLMEKEILEKRKGPLEGHTENDHHKFHPLPRFEPKNGLIHGVAPRNGFRSKLKEVGQAQLKTGRRRLFAQEKEVVKEEEEDKGVLNDFHKCIYKGRSVSLTTFYRTARNIMSMCFSKEPAPAEIEQEYWRLVEEKDCHVAVHCGKVDTNTHGSGFPVGKSEPFSRHGWNLTVLPNNTGSILRHLGAVPGVTIPWLNIGMVFSTSCWSRDQNHLPYIDYLHTGADCIWYCIPAEEENKLEDVVHTLLQANGTPGLQMLESNVMISPEVLCKEGIKVHRTVQQSGQFVVCFPGSFVSKVCCGYSVSETVHFATTQWTSMGFETAKEMKRRHIAKPFSMEKLLYQIAQAEAKKENGPTLSTISALLDELRDTELRQRRQLFEAGLHSSARYGSHDGSSTVADGKKKPRKWLQLETSERRCQICQHLCYLSMVVQENENVVFCLECALRHVEKQKSCRGLKLMYRYDEEQIISLVNQICGKVSGKNGSIENCLSKPTPKRGPRKRATVDVPPSRLSASSSSKSASSSS
35 | – | MTF2 (endogenous, hiPSCs), Q9Y483 1-593 (natural protein) MRDSTGAGNSLVHKRSPLRRNQKTPTSLTKLSLQDGHKAKKPACKFEEGQDVLARWSDGLFYLGTIKKINILKQSCFIIFEDSSKSWVLWKDIQTGATGSGEMVCTICQEEYSEAPNEMVICDKCGQGYHQLCHTPHIDSSVIDSDEKWLCRQCVFATTTKRGGALKKGPNAKALQVMKQTLPYSVADLEWDAGHKTNVQQCYCYCGGPGDWYLKMLQCCKCKQWFHEACVQCLQKPMLFGDRFYTFICSVCSSGPEYLKRLPLQWVDIAHLCLYNLSVIHKKKYFDSELELMTYINENWDRLHPGELADTPKSERYEHVLEALNDYKTMFMSGKEIKKKKHLFGLRIRVPPVPPNVAFKAEKEPEGTSHEFKIKGRKASKPISDSREVSNGIEKKGKKKSVGRPPGPYTRKMIQKTAEPLLDKESISENPTLDLPCSIGRTEGTAHSSNTSDVDFTGASSAKETTSSSISRHYGLSDSRKRTRTGRSWPAAIPHLRRRRGRLPRRALQTQNSEIVKDDEGKEDYQFDELNTEILNNLADQELQLNHLKNSITSYFGAAGRIACGEKYRVLARRVTLDGKVQYLVEWEGATAS
